From the RNAGym collection of RNA variant scans (doi:10.7554/elife.80360) come the findings set out here.

The chains are these.
B1: Hairpin Ribozyme (parent)
chain: GUCCUCUUUCACGUGCGCGUGAAAGAGAGAAGUGAACCAGAGAAACACACGUUGUGGUAUAUUACCUGGUA

The variants in this series derive from B1. As to the kind of experiment: self-cleavage, relative activity (ratio to wild type); higher = more cleavage; co-transcriptional.
Regarding C10U A26U, the self-cleavage came to 0.624.
Regarding C12A A44G, the self-cleavage is 0.114.
Regarding C12A A44C, the self-cleavage came out at 0.0806.
Take C12A U58G: the self-cleavage was found to be 0.708.
With A11G A41C the figure was 1.06.
With C10U C46U the figure was 0.152; with C10G U70G, 0.611.
Turning to C10U U60G, the self-cleavage stood at 0.435.
In the case of A11G G54U, the self-cleavage was determined as 0.56.
With A11G G54A the figure was 0.487; with A11G A30U, 0.118; with C10U G69C, 0.235.
With C10U C16A the figure was 0.887; with C10U C16G, 0.564.
Consider A11C U14C, for which the self-cleavage is 0.68.
A11G A59U: the self-cleavage amounted to 0.199.
As for C10U A22C, the self-cleavage came to 0.631.
Take C10U U14C: the self-cleavage stood at 0.671.
As to C10U U14G, the self-cleavage stood at 0.698.
With C10U G19A the figure was 0.588.
Take C10U G19C: the self-cleavage stood at 0.702.
In the case of C10G U58C, the self-cleavage was 0.681.
For the variant C12A G27C, the self-cleavage was 0.0872.
Take C10U U67G: the self-cleavage amounted to 0.311.
On to C10U U67A, for which the self-cleavage is 0.137.
Turning to C10U C65U, the self-cleavage was determined as 0.204.
Regarding C10U C65A, the self-cleavage worked out at 0.642.
Take A11G U52A: the self-cleavage worked out at 0.857.
For A11U C12A, the self-cleavage worked out at 0.763.
With A11U C12U, the self-cleavage was found to be 0.694.
For the variant A11U A36U, the self-cleavage is 0.533.
Consider A11U A36C, for which the self-cleavage amounted to 0.619.
On to A11C C16U, for which the self-cleavage came out at 0.811.
With A11G U62C, the self-cleavage is 0.146.
For A11G U62G, the self-cleavage turned out to be 0.332.
As for C12A C50A, the self-cleavage came out at 0.231.
C12A C50G: the self-cleavage came to 0.389.
As for C10U G13U, the self-cleavage is 0.612.
With C10U G13C the figure was 0.471; with A11G U70G, 0.846.
On to A11G G19A, for which the self-cleavage worked out at 0.88.
With C10U A39U the figure was 0.334; with A11C C50U, 0.247; with C12A A43U, 0.131.
With A11C A61G the figure was 0.0356; with A11C A61U, 0.118.
Consider A11G A23G, for which the self-cleavage was 0.83.
With A11C G25U the figure was 0.548; with C12A A39G, 0.285; with C12A A39U, 0.425.
As for A11G U67G, the self-cleavage turned out to be 0.354.
A11G U67A: the self-cleavage came out at 0.243.
Take C10U U33A: the self-cleavage was determined as 0.169.
As to C10U G42U, the self-cleavage is 0.269.
As to C10U G42C, the self-cleavage is 0.266.
In the case of C10U A11G, the self-cleavage stood at 0.734.
Take A11U A35U: the self-cleavage came out at 0.717.
With A11U G17U the figure was 0.562; with A11U G17A, 0.751.
On to A11U U67C, for which the self-cleavage turned out to be 0.223.
In the case of A11U U67A, the self-cleavage came to 0.117.
For the variant A11U G19U, the self-cleavage was determined as 0.815.
For A11C G69U, the self-cleavage stood at 0.299.
With A11C G69A the figure was 0.381; with C12A U14G, 0.566.
Take C12A U14A: the self-cleavage came to 0.611.
With C12A U14C, the self-cleavage was determined as 0.71.
Consider A11U C38A, for which the self-cleavage worked out at 0.2.
On to A11G U55A, for which the self-cleavage came out at 0.191.
With C12A A59G the figure was 0.226.
For C12A A23U, the self-cleavage is 0.671.
As to C12A A23G, the self-cleavage is 0.677.
Regarding A11C A36G, the self-cleavage was 1.07.
As to A11C A36U, the self-cleavage is 0.491.
In the case of A11U G54A, the self-cleavage turned out to be 0.538.
Regarding A11C A64C, the self-cleavage was found to be 0.0846.
For the variant A11C A64G, the self-cleavage came to 0.462.
Consider A11G A39C, for which the self-cleavage stood at 0.45.
In the case of A11C G57C, the self-cleavage stood at 0.145.
With A11U U60C, the self-cleavage came out at 1.18.
C10G G34U: the self-cleavage was determined as 1.06.
Turning to A11C G42C, the self-cleavage is 0.441.
With C12A U33C the figure was 0.166; with A11U C37G, 0.369.
Consider A11U C37U, for which the self-cleavage was 0.524.
For the variant A11G C48G, the self-cleavage was 0.109.
With A11G C48A the figure was 0.0849; with A11U G68A, 0.316.
With C10G G32U the figure was 0.15.
With C10U G29C the figure was 0.159; with C10U G29U, 0.134; with C12A A35C, 0.978.
Consider C12A A35G, for which the self-cleavage turned out to be 0.914.
A11U A24U: the self-cleavage stood at 0.638.
Take C10U A31G: the self-cleavage is 0.812.
Regarding C10U A31U, the self-cleavage was found to be 0.103.
As for C12A A31G, the self-cleavage came out at 0.468.
With C12A A31C, the self-cleavage was determined as 0.117.
A11C A26C: the self-cleavage came to 0.41.
With A11C A26U, the self-cleavage worked out at 0.482.
With C12A C46A the figure was 0.202; with C12A C46U, 0.119.
Turning to A11G G68U, the self-cleavage stood at 0.143.
As for A11G G68C, the self-cleavage turned out to be 0.221.
Consider A11U C18A, for which the self-cleavage stood at 0.826.
On to A11U A23C, for which the self-cleavage was 0.652.
For A11U A23G, the self-cleavage was 0.402.
Consider A11C G19U, for which the self-cleavage was determined as 0.697.
C10U A61G: the self-cleavage was 0.201.
C10U A61C: the self-cleavage is 0.311.
Take A11G G21U: the self-cleavage came to 0.72.
Consider A11G G21A, for which the self-cleavage amounted to 0.764.
With C10U A41U, the self-cleavage turned out to be 0.817.
Consider C10U A41C, for which the self-cleavage was 1.03.
With A11G A26C the figure was 0.624; with A11U A61C, 0.137; with C12A G32U, 0.114.
In the case of C12A G32A, the self-cleavage was 0.178.
As for C10U G27A, the self-cleavage worked out at 0.403.
With A11G A45U the figure was 0.159; with A11G G57C, 0.169; with C12A G40C, 0.15.
With C12A G40U the figure was 0.186; with C12A A30C, 0.159.
For A11C A49G, the self-cleavage came out at 0.629.
Consider A11C A49U, for which the self-cleavage was 0.197.
With C10G G54C, the self-cleavage stood at 0.193.
Regarding C10U C37U, the self-cleavage worked out at 0.39.
With A11G U33C the figure was 0.0978; with C10U A59G, 0.206; with C10U A59C, 0.227.
Consider A11C G56U, for which the self-cleavage stood at 0.0715.
With C12A C38G the figure was 0.187.
With C12A C38U the figure was 0.482; with A11C G68A, 0.248.
Regarding A11C G68C, the self-cleavage came to 0.136.
A11U A47C: the self-cleavage worked out at 0.232.
With A11U A47G the figure was 0.247; with C10G G69A, 0.299.
With C10G G69U the figure was 0.142.
For A11U G29A, the self-cleavage stood at 0.137.
With A11C A28U the figure was 0.603; with A11C G34U, 1.45.
For C10U A30C, the self-cleavage stood at 0.146.
Regarding A11U G25U, the self-cleavage was 0.568.
With A11U G25A, the self-cleavage amounted to 0.402.
As to A11G U63C, the self-cleavage was 0.204.
In the case of A11G U63G, the self-cleavage was 0.296.
Take C10U U63A: the self-cleavage was determined as 0.25.
With C10U U63G the figure was 0.263; with A11C C66G, 0.0776.
Turning to C10U A28U, the self-cleavage came to 0.357.
With C12A U55G the figure was 0.406; with C10G U53C, 0.59; with C10G U53A, 0.663.
As for A11U A28C, the self-cleavage turned out to be 0.53.
Consider A11U, for which the self-cleavage is 0.831.
For A11C, the self-cleavage is 0.849.
Take A11G: the self-cleavage is 0.883.
With A11C U58G, the self-cleavage worked out at 0.696.
With C10G U67A the figure was 0.191; with C10G U67C, 0.172.
For the variant C12A C65G, the self-cleavage is 0.282.
As for A11G C16G, the self-cleavage worked out at 0.592.
As to A11C C46G, the self-cleavage amounted to 0.204.
Take A11C C46U: the self-cleavage worked out at 0.255.
A11G U58G: the self-cleavage is 0.802.
